In patent publication EP4554620A1 (dated 2025):
Where a chain is given by its changes, count along the chain named.

Tests used:
[1] = target: T1, Human TIGIT residues 23-128 LEU65A mutant (human, UniProt Q495A1 23-128); experiment: SPR, TIGIT alanine mutants
T1 construct: not shown: C-terminal HIS tag
T1 chain: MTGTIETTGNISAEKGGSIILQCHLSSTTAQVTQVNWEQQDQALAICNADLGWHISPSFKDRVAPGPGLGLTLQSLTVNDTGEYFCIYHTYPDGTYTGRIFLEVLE

[2] = target: T2, Human TIGIT residues 23-128 ILE68A mutant (human, UniProt Q495A1 23-128); experiment: SPR, TIGIT alanine mutants
T2 construct: not shown: C-terminal HIS tag
T2 chain: T1 chain with A43L, I46A

- fold lower binding affinity against WT TIGIT [1]: ~25 fold
- fold lower binding affinity against WT TIGIT [2]: ~40 fold
B1: Tiragolumab (antibody, V domains shown)
VH: EVQLQQSGPGLVKPSQTLSLTCAISGDSVSSNSAAWNWIRQSPSRGLEWLGKTYYRFKWYSDYAVSVKGRITINPDTSKNQFSLQLNSVTPEDTAVFYCTRESTTYDLLAGPFDYWGQGTLVTVSS
VL: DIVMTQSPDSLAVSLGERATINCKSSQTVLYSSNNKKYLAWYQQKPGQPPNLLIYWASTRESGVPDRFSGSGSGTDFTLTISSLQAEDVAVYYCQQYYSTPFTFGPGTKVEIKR
